Measurements as given in the supplement of paper PMC9876800.

System: peptide library, one residue held at a place counted from the S/T acceptor
Test: relative phosphorylation of the sub-library (ratio to the mean residue at this position); higher = residue favoured
Settings: human
Summary of the method: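 In 384-well plates, purified recombinant kinases (human or orthologue constructs) were incubated for 90 min under kinase-specific conditions with 50 μM biotinylated degenerate peptide sub-libraries and 50 μM ATP spiked with γ-32P-ATP. Each sub-library fixed a single residue at one position around a central Ser/Thr. Relative sub-library phosphorylation, measured by phosphorimaging and densitometry of streptavidin membrane spots, is given as a ratio to the mean residue at that position.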

Sequence of NUAK1, construct: Full length (O60285 whole entry, looked up): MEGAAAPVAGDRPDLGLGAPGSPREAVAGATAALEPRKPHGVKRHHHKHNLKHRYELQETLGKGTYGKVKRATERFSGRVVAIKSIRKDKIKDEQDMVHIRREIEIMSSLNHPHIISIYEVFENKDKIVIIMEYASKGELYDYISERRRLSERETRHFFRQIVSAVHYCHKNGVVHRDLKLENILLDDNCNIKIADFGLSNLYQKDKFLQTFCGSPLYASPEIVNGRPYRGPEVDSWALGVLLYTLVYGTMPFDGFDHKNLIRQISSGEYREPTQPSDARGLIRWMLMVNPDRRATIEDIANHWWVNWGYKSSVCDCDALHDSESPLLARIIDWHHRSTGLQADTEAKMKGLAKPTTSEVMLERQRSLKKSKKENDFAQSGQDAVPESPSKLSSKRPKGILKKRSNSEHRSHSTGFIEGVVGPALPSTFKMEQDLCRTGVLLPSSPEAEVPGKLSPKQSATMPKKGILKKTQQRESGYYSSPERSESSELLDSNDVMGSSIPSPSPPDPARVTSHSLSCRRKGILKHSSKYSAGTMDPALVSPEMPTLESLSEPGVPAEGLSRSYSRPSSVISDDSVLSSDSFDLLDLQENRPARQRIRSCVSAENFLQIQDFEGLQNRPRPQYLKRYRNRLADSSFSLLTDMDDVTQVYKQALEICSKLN
Sequence of STK32C, construct: aa66-end (Q86UX6 66-486, looked up): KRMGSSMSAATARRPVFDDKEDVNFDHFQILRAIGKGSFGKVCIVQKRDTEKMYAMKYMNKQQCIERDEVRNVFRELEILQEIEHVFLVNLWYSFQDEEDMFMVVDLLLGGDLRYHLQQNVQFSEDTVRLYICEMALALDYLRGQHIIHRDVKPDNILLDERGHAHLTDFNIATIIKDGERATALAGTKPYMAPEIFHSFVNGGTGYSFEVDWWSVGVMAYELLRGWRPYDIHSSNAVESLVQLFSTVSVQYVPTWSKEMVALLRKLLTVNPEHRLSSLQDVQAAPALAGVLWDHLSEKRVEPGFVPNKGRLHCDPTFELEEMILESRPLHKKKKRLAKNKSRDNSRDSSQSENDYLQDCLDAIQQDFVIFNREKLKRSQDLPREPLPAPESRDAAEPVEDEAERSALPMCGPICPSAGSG
Sequence of ULK2, construct: aa1-478 (Q8IYT8 1-478, looked up): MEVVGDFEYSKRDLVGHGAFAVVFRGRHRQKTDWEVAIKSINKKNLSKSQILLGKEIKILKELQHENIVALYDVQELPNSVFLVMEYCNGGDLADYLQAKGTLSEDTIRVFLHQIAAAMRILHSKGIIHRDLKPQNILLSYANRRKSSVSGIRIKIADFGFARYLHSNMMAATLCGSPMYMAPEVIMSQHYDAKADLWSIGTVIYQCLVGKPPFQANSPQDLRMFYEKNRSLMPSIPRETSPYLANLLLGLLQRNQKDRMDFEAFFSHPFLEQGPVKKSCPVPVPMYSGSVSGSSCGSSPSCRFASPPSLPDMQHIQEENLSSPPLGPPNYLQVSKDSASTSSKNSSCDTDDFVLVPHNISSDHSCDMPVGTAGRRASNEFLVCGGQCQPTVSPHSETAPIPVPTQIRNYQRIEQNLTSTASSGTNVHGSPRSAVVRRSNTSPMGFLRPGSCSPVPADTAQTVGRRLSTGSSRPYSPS

STK32C, construct: aa66-end (from UniProt Q86UX6)
relative phosphorylation
Settings | at +1 | at +2 | at +3 | at +4 | at -1 | at -2 | at -3 | at -4 | at -5
A fixed | 0.586 | 0.613 | 0.769 | 0.982 | 0.776 | 0.864 | 0.945 | 1.11 | 1.1
D fixed | 0.55 | 0.69 | 0.689 | 0.866 | 0.807 | 0.64 | 0.957 | 1.38 | 1.18
E fixed | 1.12 | 1.13 | 0.957 | 1.46 | 0.767 | 0.801 | 1.03 | 1.24 | 0.887
F fixed | 2.08 | 1.21 | 1.08 | 0.741 | 0.739 | 1.04 | 0.611 | 0.759 | 0.924
G fixed | 0.541 | 0.564 | 0.682 | 0.907 | 1.26 | 0.918 | 0.985 | 1.42 | 1.32
H fixed | 0.588 | 1.04 | 1.1 | 1.02 | 0.849 | 0.895 | 0.645 | 0.763 | 0.862
I fixed | 1.92 | 1.03 | 1.51 | 0.836 | 0.592 | 0.773 | 0.758 | 0.812 | 0.912
K fixed | 0.671 | 0.572 | 1.05 | 1.19 | 1.14 | 0.826 | 0.951 | 0.962 | 1.05
L fixed | 0.965 | 1.19 | 0.968 | 0.832 | 0.809 | 1.33 | 0.772 | 0.756 | 0.954
M fixed | 1.77 | 1.09 | 0.944 | 0.892 | 1.09 | 1.12 | 0.745 | 0.94 | 0.923
N fixed | 0.651 | 0.755 | 0.836 | 0.992 | 1.04 | 0.841 | 0.76 | 0.93 | 0.882
P fixed | 0.399 | 0.362 | 0.54 | 1.21 | 1.73 | 1.09 | 1.04 | 1.14 | 1.06
Q fixed | 1.18 | 0.714 | 0.917 | 1.07 | 1.08 | 0.824 | 0.796 | 0.838 | 0.779
R fixed | 1.06 | 0.743 | 1.23 | 1.25 | 1.97 | 2.49 | 3.68 | 1.38 | 1.43
V fixed | 1.14 | 0.809 | 1.33 | 0.798 | 0.779 | 0.745 | 0.814 | 0.883 | 0.854
W fixed | 0.863 | 2.44 | 1.21 | 1.05 | 0.672 | 0.887 | 0.698 | 0.86 | 0.954
Y fixed | 0.919 | 2.05 | 1.18 | 0.899 | 0.909 | 0.911 | 0.804 | 0.829 | 0.927
pThr fixed | 1.03 | 2.66 | 3.27 | 2.05 | 1.08 | 1.28 | 7.04 | 1.72 | 1.18
pTyr fixed | 2.11 | 71.5 | 5.77 | 9.82 | 1.41 | 2.55 | 1.39 | 1.07 | 1.07

ULK2, construct: aa1-478 (from UniProt Q8IYT8)
relative phosphorylation
Settings | at +1 | at +2 | at +3 | at +4 | at -1 | at -2 | at -3 | at -4 | at -5
A fixed | 0.728 | 0.707 | 0.906 | 0.969 | 1.08 | 1.11 | 0.982 | 1.31 | 1.38
D fixed | 0.31 | 0.349 | 0.794 | 0.811 | 1.04 | 1.1 | 0.736 | 1.16 | 1.29
E fixed | 0.365 | 0.348 | 0.775 | 0.701 | 0.927 | 1.05 | 0.599 | 0.953 | 1.08
F fixed | 1.4 | 0.962 | 0.824 | 0.652 | 0.63 | 1.14 | 0.873 | 0.616 | 0.704
G fixed | 0.631 | 0.582 | 1.39 | 1.28 | 1.09 | 1.12 | 1.24 | 1.47 | 1.23
H fixed | 0.927 | 1.62 | 1.19 | 1.17 | 0.923 | 1.31 | 0.774 | 1.05 | 1.11
I fixed | 1.49 | 1.03 | 0.872 | 0.796 | 0.637 | 0.728 | 0.739 | 0.685 | 0.679
K fixed | 0.863 | 1.09 | 1.51 | 1.43 | 1.53 | 0.703 | 0.63 | 0.968 | 1.21
L fixed | 1.07 | 0.851 | 0.858 | 0.831 | 0.788 | 0.843 | 1.54 | 0.738 | 0.748
M fixed | 1.78 | 1.08 | 0.867 | 0.938 | 1.11 | 1.11 | 2.88 | 0.946 | 0.705
N fixed | 0.665 | 0.848 | 0.895 | 1.02 | 1.12 | 1.18 | 1.12 | 1.24 | 1.16
P fixed | 0.167 | 0.441 | 0.832 | 1.28 | 0.567 | 0.492 | 0.774 | 1.19 | 1.01
Q fixed | 1.37 | 0.846 | 0.932 | 1.01 | 1.4 | 0.965 | 0.955 | 0.91 | 0.995
R fixed | 1.05 | 1.59 | 1.37 | 1.28 | 1.48 | 0.655 | 0.693 | 0.965 | 1.1
V fixed | 1.53 | 1.02 | 0.945 | 0.863 | 1.02 | 0.774 | 0.808 | 0.748 | 0.815
W fixed | 1.14 | 1.6 | 1.02 | 1.11 | 0.814 | 1.6 | 1.02 | 1.3 | 1.02
Y fixed | 1.51 | 2.04 | 1.02 | 0.854 | 0.85 | 1.12 | 0.652 | 0.761 | 0.754
pThr fixed | 0.659 | 0.378 | 0.594 | 0.749 | 0.557 | 0.6 | 0.707 | 0.833 | 0.782
pTyr fixed | 0.882 | 0.714 | 0.817 | 0.647 | 0.923 | 1.04 | 0.619 | 0.547 | 0.707

NUAK1, construct: Full length (from UniProt O60285)
relative phosphorylation
Settings | at +1 | at +2 | at +3 | at +4 | at -1 | at -2 | at -3 | at -4 | at -5
A fixed | 0.726 | 0.749 | 0.566 | 0.716 | 1.14 | 1.47 | 0.552 | 1.04 | 0.835
D fixed | 0.449 | 0.564 | 0.844 | 0.464 | 0.661 | 0.734 | 0.4 | 0.474 | 0.611
E fixed | 0.545 | 0.312 | 0.418 | 0.359 | 0.488 | 0.532 | 0.397 | 0.867 | 0.436
F fixed | 2.2 | 0.695 | 1.33 | 1.13 | 0.475 | 0.586 | 0.472 | 0.91 | 1.12
G fixed | 0.839 | 1.15 | 0.566 | 0.81 | 1.27 | 0.931 | 0.454 | 0.673 | 0.609
H fixed | 0.927 | 1.14 | 1.56 | 1.08 | 0.951 | 0.821 | 1.12 | 0.995 | 0.772
I fixed | 0.559 | 1.16 | 0.888 | 1.76 | 0.261 | 0.557 | 0.322 | 0.792 | 2.04
K fixed | 1.19 | 1.09 | 1.22 | 1.01 | 2.27 | 0.955 | 2.72 | 1.16 | 1.2
L fixed | 0.666 | 1.19 | 0.907 | 2.45 | 0.613 | 0.489 | 0.395 | 1.12 | 2.08
M fixed | 1.1 | 1.17 | 1.08 | 1.69 | 0.937 | 0.837 | 0.598 | 1.56 | 1.33
N fixed | 1.2 | 1.52 | 1.53 | 0.786 | 1.58 | 4.11 | 0.691 | 0.776 | 0.631
P fixed | 0.483 | 0.753 | 0.434 | 0.765 | 1.63 | 0.53 | 0.665 | 0.929 | 0.727
Q fixed | 1.72 | 0.954 | 1 | 0.743 | 1.37 | 1.51 | 0.786 | 0.934 | 0.582
R fixed | 1.25 | 1.7 | 0.909 | 0.617 | 1.6 | 0.926 | 6.15 | 1.41 | 1.24
V fixed | 0.687 | 1.02 | 0.735 | 0.947 | 0.375 | 0.864 | 0.288 | 0.924 | 1.21
W fixed | 0.935 | 0.929 | 1.58 | 0.809 | 0.571 | 0.583 | 0.521 | 1.54 | 0.775
Y fixed | 1.51 | 0.889 | 1.42 | 0.869 | 0.822 | 0.554 | 0.468 | 0.891 | 0.802
pThr fixed | 0.684 | 0.497 | 0.396 | 0.362 | 0.291 | 0.397 | 0.352 | 0.518 | 0.373
pTyr fixed | 0.597 | 0.273 | 0.337 | 0.346 | 0.746 | 0.419 | 0.445 | 0.438 | 0.547
